How the values were obtained:
[1] = molecular target: HLA-B*07:02; test: IEDB peptide-MHC binding, purified MHC/direct/fluorescence; filed as Kd, often an IC50 or EC50 that approximates it; ≥ and ≤ were set here for values at or beyond the usual limits of such assays; conditions: source organism: Influenza A virus (A/Viet Nam/HN/2004(H5N1))
[2] = molecular target: HLA-B*44:02; test: as above; conditions: source organism: Influenza A virus (A/Viet Nam/HN/2004(H5N1))
[3] = molecular target: HLA-B*27:05; test: as above
[4] = molecular target: HLA-B*46:01; test: as above
[5] = molecular target: HLA-B*15:01; test: as above
[6] = molecular target: HLA-B*58:01; test: as above
[7] = molecular target: HLA-B*18:01; test: as above
[8] = molecular target: HLA-A*01:01; test: as above
[9] = molecular target: HLA-A*24:02; test: as above; conditions: source organism: Influenza A virus (A/Viet Nam/HN/2004(H5N1))
[10] = molecular target: HLA-A*02:01; test: as above
[11] = molecular target: HLA-A*11:01; test: as above
[12] = molecular target: HLA-B*08:01; test: as above; conditions: source organism: Influenza A virus (A/Viet Nam/HN/2004(H5N1))
[13] = molecular target: HLA-A*03:01; test: as above
[14] = molecular target: HLA-B*40:01; test: as above
[15] = molecular target: HLA-A*69:01; test: as above
[16] = molecular target: HLA-A*26:01; test: as above
[17] = molecular target: HLA-B*39:01; test: IEDB peptide-MHC binding, purified MHC/competitive/fluorescence; filed as Kd, often an IC50 or EC50 that approximates it; ≥ and ≤ were set here for values at or beyond the usual limits of such assays; conditions: source organism: Parafrankia sp. EAN1pec
[18] = molecular target: HLA-B*08:02; test: IEDB peptide-MHC binding, purified MHC/direct/fluorescence; filed as Kd, often an IC50 or EC50 that approximates it; ≥ and ≤ were set here for values at or beyond the usual limits of such assays; conditions: source organism: Mycobacterium tuberculosis C
[19] = molecular target: HLA-B*57:01; test: as above; conditions: source organism: Mycobacterium tuberculosis
[20] = molecular target: HLA-B*15:17; test: as above; conditions: source organism: Mycobacterium tuberculosis
[21] = molecular target: HLA-B*51:01; test: as above; conditions: source organism: Mycobacterium tuberculosis
[22] = molecular target: HLA-B*48:01; test: as above; conditions: source organism: Mycobacterium tuberculosis
[23] = molecular target: HLA-A*31:01; test: as above; conditions: source organism: Mycobacterium tuberculosis
[24] = source organism: Influenza A virus (A/Viet Nam/HN/2004(H5N1))
[25] = source organism: Mycobacterium tuberculosis

FRNQVKIRR
Kd [1]: ≥ 20 µM
Kd [2]: ≥ 20 µM
Kd ([3]; source organism: Influenza A virus (A/Puerto Rico/8/34/Mount Sinai(H1N1))): 0.079 µM
Kd [4, 24]: ≥ 20 µM
Kd [5, 24]: ≥ 20 µM
Kd [6, 24]: ≥ 20 µM
Kd [7, 24]: ≥ 20 µM
Kd [8, 24]: ≥ 20 µM
Kd [9]: ≥ 20 µM
Kd [10, 24]: ≥ 20 µM
Kd [11, 24]: ≥ 20 µM
Kd [12]: ≥ 20 µM
Kd [13, 24]: ≥ 20 µM
Kd [14, 24]: ≥ 20 µM
Kd [15, 24]: ≥ 20 µM
Kd ([16]; source organism: Influenza A virus(A/swine/Shandong/fNY/2003(H9N2))): ≥ 20 µM

KPARGGSSI
Kd [17]: 2.76 µM
Kd [18]: ≥ 20 µM
Kd [19]: ≥ 20 µM
Kd [20]: ≥ 20 µM
Kd [3, 25]: ≥ 20 µM
Kd [4, 25]: ≥ 20 µM
Kd [5, 25]: ≥ 20 µM
Kd [21]: 2.62 µM
Kd [6, 25]: ≥ 20 µM
Kd [7, 25]: ≥ 20 µM
Kd [8, 25]: ≥ 20 µM
Kd [22]: ≥ 20 µM
Kd [10, 25]: ≥ 20 µM
Kd [11, 25]: ≥ 20 µM
Kd [13, 25]: ≥ 20 µM
Kd [14, 25]: ≥ 20 µM
Kd [15, 25]: ≥ 20 µM
Kd ([16]; source organism: Mycobacterium tuberculosis C): ≥ 20 µM
Kd [23]: ≥ 20 µM

Reference: the Immune Epitope Database (IEDB)
